Test results published in US20060177452A1 (BURNHAM INSTITUTE FOR MEDICAL RESEARCH, published 2006).
No end group written: not given here.

Assays:
[1] = target: EphB4 ectodomain fused to human Fc, carboxy-terminal hexahistidine tag (human); test: inhibition of ephrin-B2 AP binding to immobilized EphB4 ectodomain Fc
[2] = target: EphB4 ectodomain fused to human Fc, carboxy-terminal hexahistidine tag (human); test: inhibition of ephrin-B2 AP binding to immobilized EphB4 ectodomain Fc (FIG. 6B)
[3] = target: T1, endogenous EphB4 of MCF7 human breast cancer cells (human, UniProt P54760 16-987); test: biotinylated TNYL and streptavidin quantum dots, fluorescence microscopy of MCF-7 cells
T1 construct: whole, on cells; In pull-downs it stood in cell lysates; also called endogenous EphB4 (MCF-7)
T1 sequence (looked up): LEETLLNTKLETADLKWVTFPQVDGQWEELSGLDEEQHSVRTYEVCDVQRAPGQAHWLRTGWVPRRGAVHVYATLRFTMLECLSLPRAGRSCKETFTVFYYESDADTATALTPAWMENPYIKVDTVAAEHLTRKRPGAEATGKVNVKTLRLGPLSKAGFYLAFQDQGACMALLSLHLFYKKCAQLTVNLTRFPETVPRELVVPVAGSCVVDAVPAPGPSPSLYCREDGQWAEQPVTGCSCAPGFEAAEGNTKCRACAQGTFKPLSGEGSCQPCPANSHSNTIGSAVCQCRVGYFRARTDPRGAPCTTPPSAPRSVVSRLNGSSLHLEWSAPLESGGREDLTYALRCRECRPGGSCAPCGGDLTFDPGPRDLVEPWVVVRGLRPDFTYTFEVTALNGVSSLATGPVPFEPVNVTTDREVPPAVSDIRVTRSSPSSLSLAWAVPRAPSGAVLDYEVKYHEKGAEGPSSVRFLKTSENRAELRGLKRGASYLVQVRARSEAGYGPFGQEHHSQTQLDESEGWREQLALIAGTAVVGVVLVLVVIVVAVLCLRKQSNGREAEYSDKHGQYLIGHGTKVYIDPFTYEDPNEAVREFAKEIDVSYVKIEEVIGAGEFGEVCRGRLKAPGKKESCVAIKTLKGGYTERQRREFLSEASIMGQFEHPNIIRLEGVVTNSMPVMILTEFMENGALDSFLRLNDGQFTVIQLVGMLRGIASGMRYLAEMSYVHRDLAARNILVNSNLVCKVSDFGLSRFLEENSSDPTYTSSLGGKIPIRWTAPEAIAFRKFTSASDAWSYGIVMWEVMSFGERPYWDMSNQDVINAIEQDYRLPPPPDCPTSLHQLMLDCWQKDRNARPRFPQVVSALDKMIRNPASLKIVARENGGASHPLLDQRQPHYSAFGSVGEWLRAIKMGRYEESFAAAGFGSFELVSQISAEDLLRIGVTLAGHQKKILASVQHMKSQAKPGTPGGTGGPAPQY

[4] = target: T2, EphB4 ectodomain fused to human Fc, carboxy-terminal hexahistidine tag (human); test: inhibition of ephrin-B2 AP binding to immobilized EphB4 ectodomain Fc; biotinylated peptide
T2 chain: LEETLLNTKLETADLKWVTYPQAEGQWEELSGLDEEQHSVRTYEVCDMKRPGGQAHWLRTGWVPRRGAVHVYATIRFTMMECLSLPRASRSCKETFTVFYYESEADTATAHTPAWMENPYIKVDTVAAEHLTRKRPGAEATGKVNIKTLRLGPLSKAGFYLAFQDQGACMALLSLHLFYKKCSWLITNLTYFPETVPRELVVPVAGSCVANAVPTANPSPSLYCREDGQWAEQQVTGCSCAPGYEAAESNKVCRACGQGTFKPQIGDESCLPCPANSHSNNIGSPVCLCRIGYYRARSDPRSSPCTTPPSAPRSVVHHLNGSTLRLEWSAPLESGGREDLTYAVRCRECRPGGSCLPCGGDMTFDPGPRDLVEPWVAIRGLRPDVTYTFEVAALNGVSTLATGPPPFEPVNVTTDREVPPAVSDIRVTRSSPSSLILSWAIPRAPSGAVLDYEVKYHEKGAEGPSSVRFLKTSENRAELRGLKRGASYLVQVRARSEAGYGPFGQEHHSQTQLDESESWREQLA

[5] = target: T3, EphB2 ectodomain fused to human Fc, carboxy-terminal hexahistidine tag (human); test: inhibition of ephrin-B2 AP binding to immobilized EphB2 ectodomain Fc; biotinylated peptide
T3 chain: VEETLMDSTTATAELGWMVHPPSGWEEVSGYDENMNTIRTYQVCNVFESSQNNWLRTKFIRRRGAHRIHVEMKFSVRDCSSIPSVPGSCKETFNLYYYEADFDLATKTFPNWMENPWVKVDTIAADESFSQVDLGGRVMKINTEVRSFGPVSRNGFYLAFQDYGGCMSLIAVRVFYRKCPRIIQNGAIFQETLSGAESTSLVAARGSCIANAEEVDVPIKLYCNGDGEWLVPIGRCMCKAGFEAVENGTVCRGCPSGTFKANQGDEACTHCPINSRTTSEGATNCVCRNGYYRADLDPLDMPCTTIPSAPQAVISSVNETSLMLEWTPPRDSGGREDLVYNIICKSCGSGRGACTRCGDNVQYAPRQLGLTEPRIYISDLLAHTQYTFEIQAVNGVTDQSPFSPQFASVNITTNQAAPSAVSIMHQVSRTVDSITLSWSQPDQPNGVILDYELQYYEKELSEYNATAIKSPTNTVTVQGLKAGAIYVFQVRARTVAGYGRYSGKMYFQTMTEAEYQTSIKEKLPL

[6] = target: T2, EphB4 ectodomain fused to human Fc, …; test: phage ELISA on immobilized EphB Fc
[7] = target: T3, EphB2 ectodomain fused to human Fc, …; test: phage ELISA on immobilized EphB Fc
[8] = target: T2, EphB4 ectodomain fused to human Fc, …; test: inhibition of ephrin-B2 AP binding to immobilized EphB4 ectodomain Fc (FIG. 6A)
[9] = target: EphB1 ectodomain fused to human Fc, carboxy-terminal hexahistidine tag (human); test: inhibition of ephrin-B2 AP binding to immobilized EphB1 ectodomain Fc; biotinylated peptide

ephrin-B2 Fc (Fc fusion)
IC50 [1]: 0.009 µM
IC50 [2]: 9 µM

TNYLFSPNGPIAGSGS (also: C-terminal biotin on linker (form not given here), also called biotinylated TNYL) [TNYL peptide, synthetic, biotinylated]
binding result [3]: binds
IC50 [4]: ~50 µM

B1: DHWRI peptide, synthetic, biotinylated (peptide)
peptide: DHWRILPFSLSSGSGS
modifications: also: C-terminal biotin, via GSGSK Lys side chain or biotinyl-ethylenediamine, not settled
IC50 [5]: > 100 µM

SGHQLLNKMPN (coat-protein fusion not described)
% Binding [6]: 100%

NPVIGPIQRAWTGSGS (also: C-terminal biotin on linker (form not given here)) [NPVI peptide, synthetic, biotinylated]
IC50 [4]: > 500 µM

B2: SHWPI peptide, synthetic, biotinylated (peptide)
peptide: SHWPISPYSLLSGSGS
modifications: also: C-terminal biotin, via GSGSK Lys side chain or biotinyl-ethylenediamine, not settled
IC50 [5]: > 100 µM

LPHGPVAAWDA (coat-protein fusion not described)
% Binding [6]: 100%
% Binding [7]: 15%

B3: WHWT peptide, synthetic, biotinylated (peptide)
peptide: WHWTIEPFAITSGSGS
modifications: C-terminal biotin: on the Lys side chain of a GSGSK linker, or N-biotinyl-ethylenediamine after GSGS (which one is not stated)
IC50 [5]: > 100 µM

TNYLFSPNGPIARAW [TNYL-RAW peptide, non-biotinylated]
IC50 [8]: ~0.015 µM
fold lower IC50 than non-biotinylated TNYL [8]: 10000 fold

B4: AHTF peptide, synthetic, biotinylated (peptide)
peptide: AHTFPYPHPKPHGSGS
modifications: C-terminal biotin: on the Lys side chain of a GSGSK linker, or N-biotinyl-ethylenediamine after GSGS (which one is not stated)
IC50 [9]: 150 µM

B5: DALN peptide, synthetic, biotinylated (peptide)
peptide: DALNDWLLFRPWGSGS
modifications: also: C-terminal biotin, via GSGSK Lys side chain or biotinyl-ethylenediamine, not settled
IC50 [4]: > 100 µM

B6: DHNH peptide, synthetic, biotinylated (peptide)
peptide: DHNHNLYNPWRLGSGS
modifications: also: C-terminal biotin, via GSGSK Lys side chain or biotinyl-ethylenediamine, not settled
IC50 [4]: ~200 µM
